This note sets out measurements from PMC11441417 (Nanoscale Horizons, 2024).

What all share (assay): AFM single-molecule force spectroscopy
For experiment [1], the target named is reovirus type 1 Lang (T1L) virion (mammalian orthoreovirus type 1 Lang (T1L)) (UniProt P07939).
In experiment [2] the target is T1, reovirus T1L σ3_(3)μ1_(3) heterohexamer (mammalian orthoreovirus type 1 Lang …, UniProt P07939 1-365; P11077 1-708).
T1 sequence (looked up) 1: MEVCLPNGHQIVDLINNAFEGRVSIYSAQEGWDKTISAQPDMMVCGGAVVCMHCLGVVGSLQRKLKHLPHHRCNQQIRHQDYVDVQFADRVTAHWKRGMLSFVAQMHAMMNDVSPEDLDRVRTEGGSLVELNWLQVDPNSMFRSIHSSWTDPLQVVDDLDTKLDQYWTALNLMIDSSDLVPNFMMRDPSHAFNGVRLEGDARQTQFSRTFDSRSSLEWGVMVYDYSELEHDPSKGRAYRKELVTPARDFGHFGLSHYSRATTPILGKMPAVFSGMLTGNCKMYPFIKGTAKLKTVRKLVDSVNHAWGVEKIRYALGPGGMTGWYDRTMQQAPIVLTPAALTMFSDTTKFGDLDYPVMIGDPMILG
T1 sequence (looked up) 2: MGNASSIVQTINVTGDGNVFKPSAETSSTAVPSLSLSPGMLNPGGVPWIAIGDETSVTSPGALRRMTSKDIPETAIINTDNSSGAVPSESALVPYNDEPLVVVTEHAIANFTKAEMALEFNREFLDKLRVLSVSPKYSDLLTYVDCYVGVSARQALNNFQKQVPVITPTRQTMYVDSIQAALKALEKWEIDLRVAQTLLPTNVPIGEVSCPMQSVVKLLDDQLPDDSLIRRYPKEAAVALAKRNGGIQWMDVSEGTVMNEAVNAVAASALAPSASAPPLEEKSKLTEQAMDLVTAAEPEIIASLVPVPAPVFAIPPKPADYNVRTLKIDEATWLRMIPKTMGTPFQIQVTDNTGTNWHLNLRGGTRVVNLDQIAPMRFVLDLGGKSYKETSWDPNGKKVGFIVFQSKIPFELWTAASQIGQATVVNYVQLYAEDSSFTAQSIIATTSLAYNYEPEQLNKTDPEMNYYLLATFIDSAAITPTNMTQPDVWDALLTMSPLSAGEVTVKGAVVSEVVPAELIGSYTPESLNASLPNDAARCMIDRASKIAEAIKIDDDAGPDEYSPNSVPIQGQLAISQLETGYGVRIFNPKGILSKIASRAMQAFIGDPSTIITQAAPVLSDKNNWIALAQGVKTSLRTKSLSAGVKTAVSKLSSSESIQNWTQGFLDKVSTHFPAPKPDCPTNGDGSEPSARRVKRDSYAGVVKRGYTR

Experiment [3] deals with T1, reovirus T1L σ3_(3)μ1_(3) heterohexamer. This is another data set of the same source.

The Kd is a measure of binding affinity in units of concentration. A higher Kd goes with lower affinity. Broadly, the koff is the first-order rate constant of dissociation. Low values mean a long-lived complex, high ones a short-lived complex. What is called kon is the second-order rate constant of association.

Where two headings read alike, the source gives them in different places.

B1: Fc-tagged mouse NgR1 (Fc fusion)
chain: CPGACVCYNEPKVTTSCPQQGLQAVPTGIPASSQRIFLHGNRISHVPAASFQSCRNLTILWLHSNALARIDAAAFTGLTLLEQLDLSDNAQLHVVDPTTFHGLGHLHTLHLDRCGLRELGPGLFRGLAALQYLYLQDNNLQALPDNTFRDLGNLTHLFLHGNRIPSVPEHAFRGLHSLDRLLLHQNHVARVHPHAFRDLGRLMTLYLFANNLSMLPAEVLMPLRSLQYLRLNDNPWVCDCRARPLWAWLQKFRGSSSEVPCNLPQRLADRDLKRLAASDLEGCAVASGPFRPIQTSQLTDEELLSLPKCCQPDAADKASVLEPGRPASAGNALKGRVPPGDTPPGNGSGPRHINDSPFGTLPSSAEPPLTALRPGGSEPPGLPTTGPRRRPGCSRKNRTRSHCRLGQAGSGASGTGDAEGS
In experiment [1], B1 registered a Kd of 93.5 nM, a koff of 0.65 s⁻¹ and a kon of 6.94e+06 M⁻¹ s⁻¹.

B2: His-tagged mouse Nogo-66 receptor 1 (amino acids 1-447) (receptor, UniProt Q99PI8 27-447, looked up)
chain: B1 chain
In experiment [2], B2 returned a Kd of 76.8 ± 51.8 nM, a koff of 0.23 ± 0.12 s⁻¹ and a kon of 2.99e+06 ± 460000 M⁻¹ s⁻¹.

B3: His-tagged human Nogo-66 receptor 1 (amino acids 1-310) (receptor, UniProt Q9BZR6 27-310, looked up)
chain: CPGACVCYNEPKVTTSCPQQGLQAVPVGIPAASQRIFLHGNRISHVPAASFRACRNLTILWLHSNVLARIDAAAFTGLALLEQLDLSDNAQLRSVDPATFHGLGRLHTLHLDRCGLQELGPGLFRGLAALQYLYLQDNALQALPDDTFRDLGNLTHLFLHGNRISSVPERAFRGLHSLDRLLLHQNRVAHVHPHAFRDLGRLMTLYLFANNLSALPTEALAPLRALQYLRLNDNPWVCDCRARPLWAWLQKFRGSSSEVPCSLPQRLAGRDLKRLAANDLQGCA
Consider B3, for which, in experiment [2], the koff was found to be 0.32 ± 0.21 s⁻¹ and the association rate constant (kon) came to 2.17e+06 ± 200000 M⁻¹ s⁻¹. Moreover, the koff in experiment [3] was 3.51 ± 2.02 s⁻¹.
